From article PMC11826995 (2025) come the findings set out here.

In assay [1] the target is MED1 DRIP-2 coregulator peptide (Homo sapiens, UniProt Q15648). Kind of assay: anisotropy.
The target in assay [2] is EP300 coregulator peptide (Homo sapiens, UniProt Q09472). Kind of assay: fluorescence anisotropy. A general note: Fluorescence polarisation rises when a labelled molecule tumbles more slowly, as on binding a larger partner.
In another assay the target is T1, HSPB6 phosphopeptide (Homo sapiens, UniProt O14558).
T1 chain: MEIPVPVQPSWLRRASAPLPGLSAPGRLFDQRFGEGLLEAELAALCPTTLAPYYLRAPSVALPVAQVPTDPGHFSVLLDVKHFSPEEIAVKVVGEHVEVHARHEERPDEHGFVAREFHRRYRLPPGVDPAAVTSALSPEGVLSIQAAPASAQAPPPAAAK
Nature of the assay: fluorescence anisotropy.

Sequence of MED1 DRIP-2 coregulator peptide (Q15648 whole entry): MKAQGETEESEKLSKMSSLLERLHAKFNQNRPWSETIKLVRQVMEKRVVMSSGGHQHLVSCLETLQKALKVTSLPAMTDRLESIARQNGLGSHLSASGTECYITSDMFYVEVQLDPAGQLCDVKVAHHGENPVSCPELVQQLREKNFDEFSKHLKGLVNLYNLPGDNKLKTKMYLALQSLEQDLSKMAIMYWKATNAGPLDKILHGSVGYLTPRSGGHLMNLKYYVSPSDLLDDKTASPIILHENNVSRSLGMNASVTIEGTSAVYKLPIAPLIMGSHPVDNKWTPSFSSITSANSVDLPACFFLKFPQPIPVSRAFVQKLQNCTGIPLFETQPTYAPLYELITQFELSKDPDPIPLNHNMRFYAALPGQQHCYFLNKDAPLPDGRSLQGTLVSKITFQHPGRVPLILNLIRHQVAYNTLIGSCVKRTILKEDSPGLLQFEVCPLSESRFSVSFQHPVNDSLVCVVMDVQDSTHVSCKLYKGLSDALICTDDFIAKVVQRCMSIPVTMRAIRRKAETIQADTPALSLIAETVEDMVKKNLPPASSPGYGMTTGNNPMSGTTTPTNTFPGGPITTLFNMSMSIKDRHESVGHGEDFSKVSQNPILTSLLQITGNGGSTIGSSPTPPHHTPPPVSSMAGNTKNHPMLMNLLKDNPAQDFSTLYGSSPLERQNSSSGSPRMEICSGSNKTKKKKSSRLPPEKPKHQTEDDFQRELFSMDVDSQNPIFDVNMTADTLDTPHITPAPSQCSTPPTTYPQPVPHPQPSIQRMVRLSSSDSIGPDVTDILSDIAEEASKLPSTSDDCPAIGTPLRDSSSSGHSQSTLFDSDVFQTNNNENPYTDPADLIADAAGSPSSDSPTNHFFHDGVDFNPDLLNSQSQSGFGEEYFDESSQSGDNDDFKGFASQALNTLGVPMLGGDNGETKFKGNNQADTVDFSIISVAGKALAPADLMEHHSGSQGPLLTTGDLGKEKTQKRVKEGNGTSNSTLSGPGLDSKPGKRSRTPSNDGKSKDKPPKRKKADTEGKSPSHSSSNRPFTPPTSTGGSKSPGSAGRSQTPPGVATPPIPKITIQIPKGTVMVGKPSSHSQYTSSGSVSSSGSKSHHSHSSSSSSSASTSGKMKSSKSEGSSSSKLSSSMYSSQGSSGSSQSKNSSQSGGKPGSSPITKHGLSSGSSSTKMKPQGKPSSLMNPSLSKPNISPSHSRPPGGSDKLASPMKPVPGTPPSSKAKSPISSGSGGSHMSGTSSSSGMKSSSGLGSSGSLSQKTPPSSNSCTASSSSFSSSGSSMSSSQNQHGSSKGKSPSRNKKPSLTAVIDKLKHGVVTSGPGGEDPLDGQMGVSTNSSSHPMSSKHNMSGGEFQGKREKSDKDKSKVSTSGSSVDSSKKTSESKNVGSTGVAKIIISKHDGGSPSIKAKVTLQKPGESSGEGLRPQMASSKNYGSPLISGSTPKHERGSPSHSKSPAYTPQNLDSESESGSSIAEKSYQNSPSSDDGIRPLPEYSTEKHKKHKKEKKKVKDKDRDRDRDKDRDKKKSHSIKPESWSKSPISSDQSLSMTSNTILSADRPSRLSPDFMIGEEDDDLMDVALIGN
Sequence of EP300 coregulator peptide (Q09472 2-2414): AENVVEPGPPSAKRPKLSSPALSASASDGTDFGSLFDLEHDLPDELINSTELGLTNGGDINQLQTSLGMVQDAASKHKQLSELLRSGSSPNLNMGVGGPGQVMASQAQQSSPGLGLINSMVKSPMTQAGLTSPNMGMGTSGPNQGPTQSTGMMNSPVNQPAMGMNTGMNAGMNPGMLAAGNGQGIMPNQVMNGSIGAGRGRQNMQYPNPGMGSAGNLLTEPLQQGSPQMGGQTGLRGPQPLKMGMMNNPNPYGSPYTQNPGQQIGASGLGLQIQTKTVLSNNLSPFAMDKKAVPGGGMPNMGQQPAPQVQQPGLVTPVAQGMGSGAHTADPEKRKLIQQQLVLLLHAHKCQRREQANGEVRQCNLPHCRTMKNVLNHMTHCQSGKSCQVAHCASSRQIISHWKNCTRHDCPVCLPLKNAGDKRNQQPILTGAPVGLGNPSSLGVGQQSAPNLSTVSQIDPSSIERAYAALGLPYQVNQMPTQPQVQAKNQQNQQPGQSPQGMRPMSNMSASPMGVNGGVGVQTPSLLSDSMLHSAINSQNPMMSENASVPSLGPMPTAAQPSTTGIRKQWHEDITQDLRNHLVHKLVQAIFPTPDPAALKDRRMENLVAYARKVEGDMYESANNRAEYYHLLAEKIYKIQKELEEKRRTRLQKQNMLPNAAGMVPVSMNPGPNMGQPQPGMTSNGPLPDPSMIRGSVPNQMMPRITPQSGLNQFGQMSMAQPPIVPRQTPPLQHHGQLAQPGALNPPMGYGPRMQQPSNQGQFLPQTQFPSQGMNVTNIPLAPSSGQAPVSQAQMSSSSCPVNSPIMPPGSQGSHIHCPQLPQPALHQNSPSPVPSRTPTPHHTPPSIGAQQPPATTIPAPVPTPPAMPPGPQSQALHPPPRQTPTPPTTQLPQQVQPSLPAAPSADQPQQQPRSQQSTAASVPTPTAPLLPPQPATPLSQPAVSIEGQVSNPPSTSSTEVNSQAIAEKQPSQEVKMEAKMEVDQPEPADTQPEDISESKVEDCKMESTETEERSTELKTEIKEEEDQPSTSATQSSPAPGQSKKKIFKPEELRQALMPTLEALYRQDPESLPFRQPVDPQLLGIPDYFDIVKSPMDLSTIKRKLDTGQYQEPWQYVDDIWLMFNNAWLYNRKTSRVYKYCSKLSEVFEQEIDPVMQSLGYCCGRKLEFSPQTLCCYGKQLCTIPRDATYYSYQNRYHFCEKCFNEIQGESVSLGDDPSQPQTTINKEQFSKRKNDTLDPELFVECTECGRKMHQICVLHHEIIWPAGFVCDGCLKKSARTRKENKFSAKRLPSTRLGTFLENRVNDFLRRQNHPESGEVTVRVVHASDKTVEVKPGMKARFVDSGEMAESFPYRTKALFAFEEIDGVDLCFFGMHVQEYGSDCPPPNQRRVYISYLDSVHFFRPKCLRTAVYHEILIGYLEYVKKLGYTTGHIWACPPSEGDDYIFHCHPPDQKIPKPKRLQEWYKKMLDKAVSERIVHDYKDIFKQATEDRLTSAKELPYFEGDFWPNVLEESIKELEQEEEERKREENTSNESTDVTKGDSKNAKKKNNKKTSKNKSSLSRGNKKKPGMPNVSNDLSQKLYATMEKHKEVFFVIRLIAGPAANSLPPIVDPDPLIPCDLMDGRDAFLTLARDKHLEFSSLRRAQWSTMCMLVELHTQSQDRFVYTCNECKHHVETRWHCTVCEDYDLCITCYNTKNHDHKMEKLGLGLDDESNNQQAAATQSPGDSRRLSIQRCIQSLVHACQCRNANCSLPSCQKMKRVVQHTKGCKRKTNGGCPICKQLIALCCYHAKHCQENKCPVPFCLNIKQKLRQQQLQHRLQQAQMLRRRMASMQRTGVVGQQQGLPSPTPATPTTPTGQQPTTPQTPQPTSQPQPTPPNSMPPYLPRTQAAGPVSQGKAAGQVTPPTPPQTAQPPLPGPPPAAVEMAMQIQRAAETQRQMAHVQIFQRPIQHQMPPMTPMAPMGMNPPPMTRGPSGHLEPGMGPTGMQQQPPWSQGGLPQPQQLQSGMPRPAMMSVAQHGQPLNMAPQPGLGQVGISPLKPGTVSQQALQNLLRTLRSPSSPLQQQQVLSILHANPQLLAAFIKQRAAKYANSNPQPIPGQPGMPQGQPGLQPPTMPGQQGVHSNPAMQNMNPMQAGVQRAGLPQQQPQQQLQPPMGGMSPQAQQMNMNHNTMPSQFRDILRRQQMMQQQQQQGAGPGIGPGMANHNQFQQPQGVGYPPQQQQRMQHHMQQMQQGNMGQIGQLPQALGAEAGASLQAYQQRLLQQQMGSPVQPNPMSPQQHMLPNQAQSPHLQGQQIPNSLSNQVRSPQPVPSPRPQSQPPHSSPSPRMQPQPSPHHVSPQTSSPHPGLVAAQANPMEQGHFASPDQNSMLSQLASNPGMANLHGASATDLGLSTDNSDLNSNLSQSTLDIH

B1: PPARγ (protein)
chain: MGETLGDSPIDPESDSFTDTLSANISQEMTMVDTEMPFWPTNFGISSVDLSVMEDHSHSFDIKPFTTVDFSSISTPHYEDIPFTRTDPVVADYKYDLKLQEYQSAIKVEPASPPYYSEKTQLYNKPHEEPSNSLMAIECRVCGDKASGFHYGVHACEGCKGFFRRTIRLKLIYDRCDLNCRIHKKSRNKCQYCRFQKCLAVGMSHNAIRFGRMPQAEKEKLLAEISSDIDQLNPESADLRALAKHLYDSYIKSFPLTKAKARAILTGKTTDKSPFVIYDMNSLMMGEDKIKFKHITPLQEQSKEVAIRIFQGCQFRSVEAVQEITEYAKSIPGFVNLDLNDQVTLLKYGVHEIIYTMLASLMNKDGVLISEGQGFMTREFLKSLRKPFGDFMEPKFEFAVKFNALELDDSDLAIFIAVIILSGDRPGLLNVKPIEDIQDNLLQALELQLKLNHPESSQLFAKLLQKMTDLRQIVTEHVQLLQVIKKTETDMSLHPLLQEIYKDLY
By Kd is commonly meant the equilibrium constant for the complex coming apart. A high value points to weaker binding. B1: the Kd is 647 nM in assay [1] and over 10 µM in assay [2].

B2: 14-3-3σ (protein)
chain: MERASLIQKAKLAEQAERYEDMAAFMKGAVEKGEELSCEERNLLSVAYKNVVGGQRAAWRVLSSIEQKSNEEGSEEKGPEVREYREKVETELQGVCDTVLGLLDSHLIKEAGDAESRVFYLKMKGDYYRYLAEVATGDDKKRIIDSARSAYQEAMDISKKEMPPTNPIRLGLALNFSVFHYEIANSPEEAISLAKTTFDEAMADLHTLSEDSYKDSTLIMQLLRDNLTLWTADNAGEEGGEAPQEPQS
modifications: phosphorylated HSPB6 peptide
With B2, the Kd with HSPB6 phosphopeptide amounted to 990 nM.
